B1: INTS3 (parent)
chain: YPPLEGHVRQGVFSSLNHIVEKRV

Variants of: B1
Experiment: protein stability index of a GFP-peptide fusion (GPS, HEK-293T) (PSI 1-6); higher = more stable
Conditions: c terminus: a fixed tail appended
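Note: lentivirally expressed fusions sorted by FACS into six bins by GFP to DsRed ratio, PSI derived from sequencing read proportions per bin multiplied by bin number.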

Row | Variant | protein stability index
1 | H18F | 1.97
2 | H18Q | 2.76
3 | H18P | 3.04
4 | H18Y | 1.83
5 | H18D | 3.39
6 | H18S | 2.65
7 | H18R | 3.42
8 | H18L | 1.77
9 | H18K | 2.86
10 | H18A | 1.86
11 | H18W | 1.39
12 | H18T | 2.16
13 | H18C | 2.01
14 | H18N | 2.78
15 | H18M | 3.03
16 | H18E | 2.91
17 | G11K | 2.93
18 | G11W | 1.34
19 | G11I | 1.87
20 | G11F | 1.8
21 | G11Q | 2.35
22 | G11L | 1.85
23 | G11A | 2.31
24 | G11P | 3.3

Row | Variant | protein stability index
25 | G11T | 2.27
26 | G11N | 2.29
27 | G11V | 2.33
28 | G11R | 2.18
29 | G11H | 2.29
30 | G11M | 1.79
31 | G11Y | 1.85
32 | G11C | 1.48
33 | V20Q | 2.72
34 | V20W | 2.02
35 | V20P | 2.64
36 | V20G | 1.76
37 | V20K | 2.43
38 | V20A | 2.7
39 | V20N | 2.34
40 | V20D | 3.13
41 | V20H | 2.36
42 | V20R | 2.9
43 | V20L | 2.2
44 | V20Y | 2.27
45 | V20C | 2
46 | V20T | 2.48
47 | V20I | 2.04
48 | H7P | 2.01

Row | Variant | protein stability index
49 | H7L | 2.2
50 | H7N | 3.13
51 | H7S | 2.97
52 | H7A | 2.68
53 | H7T | 2.56
54 | H7I | 2.21
55 | H7Q | 2.36
56 | H7G | 2.3
57 | H7K | 2.21
58 | H7V | 2.37
59 | H7R | 2.22
60 | H7F | 2.42
61 | S15D | 2.95
62 | S15E | 2.17
63 | S15K | 2.31
64 | S15N | 2.4
65 | S15P | 1.54
66 | S15A | 2.23
67 | S15C | 1.69
68 | S15Y | 1.33
69 | S15V | 2.92
70 | S15M | 2.43
71 | S15I | 1.64
72 | S15L | 1.86

Row | Variant | protein stability index
73 | S15F | 2.32
74 | S15Q | 2.28
75 | V8D | 3.25
76 | V8L | 2.13
77 | V8N | 2.55
78 | V8R | 2.75
79 | V8C | 2.86
80 | V8P | 2.31
81 | V8F | 2.23
82 | V8S | 3
83 | V8H | 2.48
84 | V8E | 3.53
85 | V8G | 2.19
86 | V8Y | 2.21
87 | V8M | 2.46
88 | V8W | 1.78
89 | V8A | 2.46
90 | V8Q | 2.85
91 | V8T | 3
92 | G6K | 2.13
93 | G6P | 2.76
94 | G6C | 2.39
95 | G6E | 3.51
96 | G6L | 2.06

Row | Variant | protein stability index
97 | G6R | 2.3
98 | G6Y | 2.38
99 | G6M | 2.51
100 | G6W | 2.65
101 | G6T | 3.99
102 | G6V | 2.07
103 | G6N | 2.86
104 | G6D | 2.81
105 | G6F | 2.2
106 | G6S | 2.73
107 | I19Q | 2.52
108 | I19V | 2.52
109 | I19M | 3.33
110 | I19D | 3.11
111 | I19W | 3.41
112 | I19F | 2.31
113 | I19N | 3.23
114 | I19H | 2.65
115 | I19R | 3.04
116 | I19Y | 2.07
117 | I19T | 2.88
118 | I19P | 2.47
119 | I19S | 2.53
120 | I19K | 2.37

Row | Variant | protein stability index
121 | I19A | 3.17
122 | I19L | 1.83
123 | E5Y | 1.87
124 | E5K | 2.1
125 | E5C | 2.08
126 | E5H | 2.24
127 | E5M | 2.24
128 | E5L | 2.14
129 | E5G | 3.59
130 | E5V | 1.49
131 | E5P | 2.14
132 | E5T | 1.96
133 | E5Q | 2.02
134 | E5F | 1.66
135 | E5W | 1.9
136 | E5S | 1.84
137 | E5N | 2.05
138 | E5A | 2.52
139 | E5D | 3.54
140 | R9H | 2.96
141 | R9Q | 3.28
142 | R9F | 2.09
143 | R9D | 3.42
144 | R9E | 3.52

Row | Variant | protein stability index
145 | R9V | 3.14
146 | R9P | 2.77
147 | R9W | 1.72
148 | R9S | 2.51
149 | R9A | 3.24
150 | R9I | 1.38
151 | R9T | 2.13
152 | R9Y | 1.92
153 | R9L | 2.07
154 | P3W | 1.49
155 | P3S | 3.19
156 | P3Q | 2.87
157 | P3G | 2.9
158 | P3I | 3.38
159 | P3M | 2.67
160 | P3N | 2.04
161 | P3Y | 2.08
162 | P3R | 2.63
163 | P3E | 2.86
164 | P3A | 2.43
165 | V24A | 3.31
166 | V24D | 3.16
167 | V24E | 3.32
168 | V24P | 2.74

Row | Variant | protein stability index
169 | V24L | 2.78
170 | V24Q | 2.57
171 | V24S | 2.58
172 | V24K | 2.4
173 | V24W | 2.68
174 | V24I | 2.69
175 | V24H | 2.29
176 | V24T | 2.09
177 | V24Y | 1.95
178 | V24M | 2.06
179 | V24R | 2.9
180 | N17F | 1.78
181 | N17K | 2.28
182 | N17I | 1.86
183 | N17C | 1.86
184 | N17E | 2.63
185 | N17M | 1.64
186 | N17A | 2.48
187 | N17R | 2.44
188 | N17V | 1.99
189 | N17H | 2.21
190 | N17G | 2.46
191 | N17T | 2.04
192 | N17W | 2.26

Row | Variant | protein stability index
193 | E21S | 2.05
194 | E21M | 2.75
195 | E21W | 1.95
196 | E21G | 2.68
197 | E21L | 2.29
198 | E21N | 2.21
199 | E21D | 3.35
200 | E21V | 2.48
201 | E21F | 2.72
202 | E21Y | 2.23
203 | E21P | 2.26
204 | E21H | 2.86
205 | E21R | 2.45
206 | E21I | 1.74
207 | E21C | 2.23
208 | E21T | 2.54
209 | E21Q | 1.79
210 | K22R | 2.75
211 | K22Q | 2.23
212 | K22H | 2.65
213 | K22G | 1.92
214 | K22P | 3.01
215 | K22E | 2.63
216 | K22L | 2.33

Row | Variant | protein stability index
217 | K22A | 2.29
218 | K22D | 2.2
219 | K22Y | 1.34
220 | K22C | 1.43
221 | K22F | 3.12
222 | K22S | 2.09
223 | K22N | 2.46
224 | K22W | 2.14
225 | R23G | 2.2
226 | R23K | 2.7
227 | R23M | 1.7
228 | R23Y | 2.48
229 | R23Q | 2.83
230 | R23D | 2.83
231 | R23C | 2.22
232 | R23P | 2.39
233 | R23T | 2.53
234 | R23I | 2.17
235 | R23E | 2.68
236 | P2L | 2.7
237 | P2M | 2.1
238 | P2H | 1.82
239 | P2G | 2.85
240 | P2A | 2.18

Row | Variant | protein stability index
241 | P2T | 1.6
242 | P2Y | 2.6
243 | P2I | 1.55
244 | P2E | 3.54
245 | P2R | 3.48
246 | L16D | 4.2
247 | L16C | 2.24
248 | L16Y | 2.22
249 | L16G | 3.18
250 | L16I | 2.31
251 | L16W | 2.1
252 | L16H | 2.94
253 | L16N | 3.3
254 | L16A | 3.33
255 | Q10H | 2.69
256 | Q10V | 2.28
257 | Q10F | 2.62
258 | Q10R | 2.26
259 | Q10S | 3.33
260 | Q10W | 1.49
261 | Q10Y | 1.99
262 | Q10N | 1.96
263 | Q10T | 1.83
264 | Q10C | 2.73

Row | Variant | protein stability index
265 | Q10L | 1.72
266 | Q10G | 2.82
267 | Q10D | 3.18
268 | Q10P | 2.3
269 | S14C | 1.5
270 | S14N | 2.41
271 | S14G | 2.61
272 | S14Y | 1.66
273 | S14R | 3.27
274 | S14Q | 3.01
275 | S14M | 2.07
276 | S14P | 2.22
277 | S14L | 1.73
278 | S14A | 2.75
279 | S14K | 2.6
280 | S14H | 2.63
281 | Y1P | 3.94
282 | Y1E | 3.96
283 | Y1L | 3.53
284 | Y1A | 4.01
285 | Y1D | 3.85
286 | Y1N | 4.12
287 | Y1R | 4.09
288 | Y1Q | 3.48

Row | Variant | protein stability index
289 | Y1C | 3.94
290 | Y1M | 3.59
291 | Y1G | 3.43
292 | Y1T | 3.94
293 | L4K | 2.64
294 | L4T | 1.79
295 | L4A | 2.7
296 | L4R | 2.32
297 | L4E | 1.08
298 | L4Y | 1.83
299 | L4S | 2.58
300 | L4Q | 2.74
301 | L4I | 2.74
302 | L4D | 2.46
303 | L4F | 3.06
304 | L4C | 2.21
305 | F13N | 3.46
306 | F13I | 3.6
307 | F13C | 2.98
308 | F13L | 3.77
309 | F13V | 3.7
310 | F13S | 3.65
311 | F13G | 3.33
312 | F13W | 2.4

Row | Variant | protein stability index
313 | F13Y | 2.84
314 | F13Q | 3.16
315 | F13A | 3.55
316 | F13D | 4.31
317 | F13T | 2.98
318 | F13H | 4.25
319 | F13K | 3.16
320 | V12Y | 2.54
321 | V12H | 2.53
322 | V12M | 2.36
323 | V12F | 2.69
324 | V12A | 2.58
325 | V12Q | 3.95
326 | V12C | 2.21
327 | V12K | 3.63
328 | V12G | 2.54
329 | V12I | 2.37
330 | V12P | 3.19
331 | V12T | 3.27
332 | V12N | 3.15
333 | V12L | 3.31
334 | V12D | 3.44

Reference: the supplement of paper PMC10567573
